Experimental data reported in paper PMC7614608.

Assays:
[1] = target: ALYREF UBM (Homo sapiens) (UniProt Q86V81); settings: cited from earlier work
ALYREFN (human) = experiment: filter binding; settings: Filter binding: 150 mM KCl, 20 mM HEPES pH 7.9, 2 mM MgCl2, 5% glycerol, 0.5 mM TCEP, +/-1 mM ATPgS, 50 nM RNA, 20 C, 45 min; EJC assembly for TREX-EJC-RNA: …
UAP56 (human) = experiment: filter binding; settings: Filter binding: 150 mM KCl, 20 mM HEPES pH 7.9, 2 mM MgCl2, 5% glycerol, 0.5 mM TCEP, +/-1 mM ATPgS, 50 nM RNA, 20 C, 45 min; EJC assembly for TREX-EJC-RNA: …

UAP56, sequence (Q13838 2-428): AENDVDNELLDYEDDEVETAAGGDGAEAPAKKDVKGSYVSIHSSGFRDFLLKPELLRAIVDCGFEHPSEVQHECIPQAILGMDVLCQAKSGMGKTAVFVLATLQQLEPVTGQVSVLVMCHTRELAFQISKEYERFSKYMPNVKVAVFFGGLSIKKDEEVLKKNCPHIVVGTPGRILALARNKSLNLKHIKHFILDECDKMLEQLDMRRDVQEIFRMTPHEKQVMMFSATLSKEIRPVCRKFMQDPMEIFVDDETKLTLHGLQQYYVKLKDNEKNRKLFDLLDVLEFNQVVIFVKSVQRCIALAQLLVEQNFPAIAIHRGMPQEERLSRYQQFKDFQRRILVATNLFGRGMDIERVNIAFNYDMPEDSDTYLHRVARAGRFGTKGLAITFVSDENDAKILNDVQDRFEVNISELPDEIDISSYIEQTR

Substance | Kd [1] | Kd (ALYREFN (human)) | Kd (UAP56 (human))
UAP56 (from UniProt Q13838) | 2900 nM |  | 
400-nt AdML RNA |  | 600 nM | 900 nM
